Data taken from IntAct's records for PubMed 16803958.

B1: Protein CBFA2T1 (Homo sapiens), Q06455-4 (parent)
chain: MPDSPVDVKTQSRLTPPTMPPPPTTQGAPRTSSFTPTTLTNGTSHSPTALNGAPSPPNGFSNGPSSSSSSSLANQQLPPACGARQLSKLKRFLTTLQQFGNDISPEIGERVRTLVLGLVNSTLTIEEFHSKLQEATNFPLRPFVIPFLKANLPLLQRELLHCARLAKQNPAQYLAQHEQLLLDASTTSPVDSSELLLDVNENGKRRTPDRTKENGFDREPLHSEHPSKRPCTISPGQRYSPNNGLSYQPNGLPHPTPPPPQHYRLDDMAIAHHYRDSYRHPSHRDLRDRNRPMGLHGTRQEEMIDHRLTDREWAEEWKHLDHLLNCIMDMVEKTRRSLTVLRRCQEADREELNYWIRRYSDAEDLKKGGGSSSSHSRQQSPVNPDPVALDAHREFLHRPASGYVPEEIWKKAEEAVNEVKRQAMTELQKAVSEAERKAHDMITTERAKMERTVAEAKRQAAEDALAVINQQEDSSESCWNCGRKASETCSGCNTARYCGSFCQHKDWEKHHHICGQTLQAQQQGDTPAVSSSVTPNSGAGSPMDTPPAATPRSTTPGTPSTIETTPR

Variants of: B1
Settings: with TCF12, Q99081-3
Chain of TCF12, Q99081-3 (Q99081 other isoform, or with tags, fused parts or gaps): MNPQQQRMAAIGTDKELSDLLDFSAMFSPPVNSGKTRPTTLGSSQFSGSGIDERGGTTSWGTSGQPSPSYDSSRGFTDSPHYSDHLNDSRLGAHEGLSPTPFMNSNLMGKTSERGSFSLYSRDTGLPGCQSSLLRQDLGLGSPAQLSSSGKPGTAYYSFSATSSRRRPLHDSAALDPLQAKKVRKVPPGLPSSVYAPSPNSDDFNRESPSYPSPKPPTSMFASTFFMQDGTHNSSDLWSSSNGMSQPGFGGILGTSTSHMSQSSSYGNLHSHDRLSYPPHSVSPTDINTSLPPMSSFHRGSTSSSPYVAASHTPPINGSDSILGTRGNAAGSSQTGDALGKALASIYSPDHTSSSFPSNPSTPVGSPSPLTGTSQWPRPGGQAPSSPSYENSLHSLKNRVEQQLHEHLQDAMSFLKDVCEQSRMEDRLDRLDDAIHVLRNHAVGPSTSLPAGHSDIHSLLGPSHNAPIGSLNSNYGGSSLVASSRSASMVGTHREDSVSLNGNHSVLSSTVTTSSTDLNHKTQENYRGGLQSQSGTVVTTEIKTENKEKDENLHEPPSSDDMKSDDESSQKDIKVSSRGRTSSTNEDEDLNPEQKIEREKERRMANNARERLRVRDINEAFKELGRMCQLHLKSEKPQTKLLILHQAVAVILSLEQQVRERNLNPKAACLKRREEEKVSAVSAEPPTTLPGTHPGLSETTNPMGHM

effect of a mutation on the interaction	Variant
disrupting interaction strength	MPDSPVDVKTQSRLTPPTMPPPPTTQGAPRTSSFTPTTLTNGTSHSPTALNGAPSPPNGFSNGPSSSSSSSLANQQLPPACGARQLSKLKRFLTTLQQFGNDISPEIGERVRTLVLGLVNSTLTIEEFHSKLQEATNFPLAPFVIPFLKANLPLLQRELLHCARLAKQNPAQYLAQHEQLLLDASTTSPVDSSELLLDVNENGKRRTPDRTKENGFDREPLHSEHPSKRPCTISPGQRYSPNNGLSYQPNGLPHPTPPPPQHYRLDDMAIAHHYRDSYRHPSHRDLRDRNRPMGLHGTRQEEMIDHRLTDREWAEEWKHLDHLLNCIMDMVEKTRRSLTVLRRCQEADREELNYWIRRYSDAEDLKKGGGSSSSHSRQQSPVNPDPVALDAHREFLHRPASGYVPEEIWKKAEEAVNEVKRQAMTELQKAVSEAERKAHDMITTERAKMERTVAEAKRQAAEDALAVINQQEDSSESCWNCGRKASETCSGCNTARYCGSFCQHKDWEKHHHICGQTLQAQQQGDTPAVSSSVTPNSGAGSPMDTPPAATPRSTTPGTPSTIETTPR [R141A]
disrupting interaction strength	MPDSPVDVKTQSRLTPPTMPPPPTTQGAPRTSSFTPTTLTNGTSHSPTALNGAPSPPNGFSNGPSSSSSSSLANQQLPPACGARQLSKLKRALTTLQQFGNDISPEIGERVRTLVLGLVNSTLTIEEFHSKLQEATNFPLRPFVIPFLKANLPLLQRELLHCARLAKQNPAQYLAQHEQLLLDASTTSPVDSSELLLDVNENGKRRTPDRTKENGFDREPLHSEHPSKRPCTISPGQRYSPNNGLSYQPNGLPHPTPPPPQHYRLDDMAIAHHYRDSYRHPSHRDLRDRNRPMGLHGTRQEEMIDHRLTDREWAEEWKHLDHLLNCIMDMVEKTRRSLTVLRRCQEADREELNYWIRRYSDAEDLKKGGGSSSSHSRQQSPVNPDPVALDAHREFLHRPASGYVPEEIWKKAEEAVNEVKRQAMTELQKAVSEAERKAHDMITTERAKMERTVAEAKRQAAEDALAVINQQEDSSESCWNCGRKASETCSGCNTARYCGSFCQHKDWEKHHHICGQTLQAQQQGDTPAVSSSVTPNSGAGSPMDTPPAATPRSTTPGTPSTIETTPR [F92A]
disrupting interaction strength	MPDSPVDVKTQSRLTPPTMPPPPTTQGAPRTSSFTPTTLTNGTSHSPTALNGAPSPPNGFSNGPSSSSSSSLANQQLPPACGARQLSKLKRFLTTLQQFGNDISPEIGERVRTLVLGLVNSTLTIEEFHSKLQEATNFPLRPFVIPALKANLPLLQRELLHCARLAKQNPAQYLAQHEQLLLDASTTSPVDSSELLLDVNENGKRRTPDRTKENGFDREPLHSEHPSKRPCTISPGQRYSPNNGLSYQPNGLPHPTPPPPQHYRLDDMAIAHHYRDSYRHPSHRDLRDRNRPMGLHGTRQEEMIDHRLTDREWAEEWKHLDHLLNCIMDMVEKTRRSLTVLRRCQEADREELNYWIRRYSDAEDLKKGGGSSSSHSRQQSPVNPDPVALDAHREFLHRPASGYVPEEIWKKAEEAVNEVKRQAMTELQKAVSEAERKAHDMITTERAKMERTVAEAKRQAAEDALAVINQQEDSSESCWNCGRKASETCSGCNTARYCGSFCQHKDWEKHHHICGQTLQAQQQGDTPAVSSSVTPNSGAGSPMDTPPAATPRSTTPGTPSTIETTPR [F147A]
disrupting interaction strength	MPDSPVDVKTQSRLTPPTMPPPPTTQGAPRTSSFTPTTLTNGTSHSPTALNGAPSPPNGFSNGPSSSSSSSLANQQLPPACGARQLSKAKRFLTTLQQFGNDISPEIGERVRTLVLGLVNSTLTIEEFHSKLQEATNFPLDPFVIPFLKANLPLLQRELLHCARLAKQNPAQYLAQHEQLLLDASTTSPVDSSELLLDVNENGKRRTPDRTKENGFDREPLHSEHPSKRPCTISPGQRYSPNNGLSYQPNGLPHPTPPPPQHYRLDDMAIAHHYRDSYRHPSHRDLRDRNRPMGLHGTRQEEMIDHRLTDREWAEEWKHLDHLLNCIMDMVEKTRRSLTVLRRCQEADREELNYWIRRYSDAEDLKKGGGSSSSHSRQQSPVNPDPVALDAHREFLHRPASGYVPEEIWKKAEEAVNEVKRQAMTELQKAVSEAERKAHDMITTERAKMERTVAEAKRQAAEDALAVINQQEDSSESCWNCGRKASETCSGCNTARYCGSFCQHKDWEKHHHICGQTLQAQQQGDTPAVSSSVTPNSGAGSPMDTPPAATPRSTTPGTPSTIETTPR [L89A;R141D]
decreasing interaction strength	MPDSPVDVKTQSRLTPPTMPPPPTTQGAPRTSSFTPTTLTNGTSHSPTALNGAPSPPNGFSNGPSSSSSSSLANQQLPPACGARQLSKAKRFLTTLQQFGNDISPEIGERVRTLVLGLVNSTLTIEEFHSKLQEATNFPLRPFVIPFLKANLPLLQRELLHCARLAKQNPAQYLAQHEQLLLDASTTSPVDSSELLLDVNENGKRRTPDRTKENGFDREPLHSEHPSKRPCTISPGQRYSPNNGLSYQPNGLPHPTPPPPQHYRLDDMAIAHHYRDSYRHPSHRDLRDRNRPMGLHGTRQEEMIDHRLTDREWAEEWKHLDHLLNCIMDMVEKTRRSLTVLRRCQEADREELNYWIRRYSDAEDLKKGGGSSSSHSRQQSPVNPDPVALDAHREFLHRPASGYVPEEIWKKAEEAVNEVKRQAMTELQKAVSEAERKAHDMITTERAKMERTVAEAKRQAAEDALAVINQQEDSSESCWNCGRKASETCSGCNTARYCGSFCQHKDWEKHHHICGQTLQAQQQGDTPAVSSSVTPNSGAGSPMDTPPAATPRSTTPGTPSTIETTPR [L89A]
disrupting interaction strength	MPDSPVDVKTQSRLTPPTMPPPPTTQGAPRTSSFTPTTLTNGTSHSPTALNGAPSPPNGFSNGPSSSSSSSLANQQLPPACGARQLSKLKDFLTTLQQFGNDISPEIGERVRTLVLGLVNSTLTIEEFHSKLQEATNFPLRPFVIPFLKANLPLLQRELLHCARLAKQNPAQYLAQHEQLLLDASTTSPVDSSELLLDVNENGKRRTPDRTKENGFDREPLHSEHPSKRPCTISPGQRYSPNNGLSYQPNGLPHPTPPPPQHYRLDDMAIAHHYRDSYRHPSHRDLRDRNRPMGLHGTRQEEMIDHRLTDREWAEEWKHLDHLLNCIMDMVEKTRRSLTVLRRCQEADREELNYWIRRYSDAEDLKKGGGSSSSHSRQQSPVNPDPVALDAHREFLHRPASGYVPEEIWKKAEEAVNEVKRQAMTELQKAVSEAERKAHDMITTERAKMERTVAEAKRQAAEDALAVINQQEDSSESCWNCGRKASETCSGCNTARYCGSFCQHKDWEKHHHICGQTLQAQQQGDTPAVSSSVTPNSGAGSPMDTPPAATPRSTTPGTPSTIETTPR [R91D]

Second part, the variant before the results:

Variant	effect of a mutation on the interaction
MPDSPVDVKTQSRLTPPTMPPPPTTQGAPRTSSFTPTTLTNGTSHSPTALNGAPSPPNGFSNGPSSSSSSSLANQQLPPACGARQLSKLKRFLTTLQQFGNDISPEIGERVRTLVLGLVNSTLTIEEFHSKLQEATNFPLDPFVIPFLKANLPLLQRELLHCARLAKQNPAQYLAQHEQLLLDASTTSPVDSSELLLDVNENGKRRTPDRTKENGFDREPLHSEHPSKRPCTISPGQRYSPNNGLSYQPNGLPHPTPPPPQHYRLDDMAIAHHYRDSYRHPSHRDLRDRNRPMGLHGTRQEEMIDHRLTDREWAEEWKHLDHLLNCIMDMVEKTRRSLTVLRRCQEADREELNYWIRRYSDAEDLKKGGGSSSSHSRQQSPVNPDPVALDAHREFLHRPASGYVPEEIWKKAEEAVNEVKRQAMTELQKAVSEAERKAHDMITTERAKMERTVAEAKRQAAEDALAVINQQEDSSESCWNCGRKASETCSGCNTARYCGSFCQHKDWEKHHHICGQTLQAQQQGDTPAVSSSVTPNSGAGSPMDTPPAATPRSTTPGTPSTIETTPR [R141D]	disrupting interaction strength
MPDSPVDVKTQSRLTPPTMPPPPTTQGAPRTSSFTPTTLTNGTSHSPTALNGAPSPPNGFSNGPSSSSSSSLANQQLPPACGARQLSKLKRALTTLQQFGNDISPEIGERVRTLVLGLVNSTLTIEEFHSKLQEATNFPLRPFVIPALKANLPLLQRELLHCARLAKQNPAQYLAQHEQLLLDASTTSPVDSSELLLDVNENGKRRTPDRTKENGFDREPLHSEHPSKRPCTISPGQRYSPNNGLSYQPNGLPHPTPPPPQHYRLDDMAIAHHYRDSYRHPSHRDLRDRNRPMGLHGTRQEEMIDHRLTDREWAEEWKHLDHLLNCIMDMVEKTRRSLTVLRRCQEADREELNYWIRRYSDAEDLKKGGGSSSSHSRQQSPVNPDPVALDAHREFLHRPASGYVPEEIWKKAEEAVNEVKRQAMTELQKAVSEAERKAHDMITTERAKMERTVAEAKRQAAEDALAVINQQEDSSESCWNCGRKASETCSGCNTARYCGSFCQHKDWEKHHHICGQTLQAQQQGDTPAVSSSVTPNSGAGSPMDTPPAATPRSTTPGTPSTIETTPR [F92A;F147A]	disrupting interaction strength
MPDSPVDVKTQSRLTPPTMPPPPTTQGAPRTSSFTPTTLTNGTSHSPTALNGAPSPPNGFSNGPSSSSSSSLANQQLPPACGARQLSKLKRFLTTAQQFGNDISPEIGERVRTLVLGLVNSTLTIEEFHSKLQEATNFPLRPFVIPFLKANLPLLQRELLHCARLAKQNPAQYLAQHEQLLLDASTTSPVDSSELLLDVNENGKRRTPDRTKENGFDREPLHSEHPSKRPCTISPGQRYSPNNGLSYQPNGLPHPTPPPPQHYRLDDMAIAHHYRDSYRHPSHRDLRDRNRPMGLHGTRQEEMIDHRLTDREWAEEWKHLDHLLNCIMDMVEKTRRSLTVLRRCQEADREELNYWIRRYSDAEDLKKGGGSSSSHSRQQSPVNPDPVALDAHREFLHRPASGYVPEEIWKKAEEAVNEVKRQAMTELQKAVSEAERKAHDMITTERAKMERTVAEAKRQAAEDALAVINQQEDSSESCWNCGRKASETCSGCNTARYCGSFCQHKDWEKHHHICGQTLQAQQQGDTPAVSSSVTPNSGAGSPMDTPPAATPRSTTPGTPSTIETTPR [L96A]	decreasing interaction strength
MPDSPVDVKTQSRLTPPTMPPPPTTQGAPRTSSFTPTTLTNGTSHSPTALNGAPSPPNGFSNGPSSSSSSSLANQQLPPACGARQLSALKRFLTTLQQFGNDISPEIGERVRTLVLGLVNSTLTIEEFHSKLQEATNFPLRPFVIPFLKANLPLLQRELLHCARLAKQNPAQYLAQHEQLLLDASTTSPVDSSELLLDVNENGKRRTPDRTKENGFDREPLHSEHPSKRPCTISPGQRYSPNNGLSYQPNGLPHPTPPPPQHYRLDDMAIAHHYRDSYRHPSHRDLRDRNRPMGLHGTRQEEMIDHRLTDREWAEEWKHLDHLLNCIMDMVEKTRRSLTVLRRCQEADREELNYWIRRYSDAEDLKKGGGSSSSHSRQQSPVNPDPVALDAHREFLHRPASGYVPEEIWKKAEEAVNEVKRQAMTELQKAVSEAERKAHDMITTERAKMERTVAEAKRQAAEDALAVINQQEDSSESCWNCGRKASETCSGCNTARYCGSFCQHKDWEKHHHICGQTLQAQQQGDTPAVSSSVTPNSGAGSPMDTPPAATPRSTTPGTPSTIETTPR [K88A]	disrupting interaction strength
MPDSPVDVKTQSRLTPPTMPPPPTTQGAPRTSSFTPTTLTNGTSHSPTALNGAPSPPNGFSNGPSSSSSSSLANQQLPPACGARQLSDLKRFLTTLQQFGNDISPEIGERVRTLVLGLVNSTLTIEEFHSKLQEATNFPLRPFVIPFLKANLPLLQRELLHCARLAKQNPAQYLAQHEQLLLDASTTSPVDSSELLLDVNENGKRRTPDRTKENGFDREPLHSEHPSKRPCTISPGQRYSPNNGLSYQPNGLPHPTPPPPQHYRLDDMAIAHHYRDSYRHPSHRDLRDRNRPMGLHGTRQEEMIDHRLTDREWAEEWKHLDHLLNCIMDMVEKTRRSLTVLRRCQEADREELNYWIRRYSDAEDLKKGGGSSSSHSRQQSPVNPDPVALDAHREFLHRPASGYVPEEIWKKAEEAVNEVKRQAMTELQKAVSEAERKAHDMITTERAKMERTVAEAKRQAAEDALAVINQQEDSSESCWNCGRKASETCSGCNTARYCGSFCQHKDWEKHHHICGQTLQAQQQGDTPAVSSSVTPNSGAGSPMDTPPAATPRSTTPGTPSTIETTPR [K88D]	disrupting interaction strength
